Patent publication US8409833B2 (Hokko Chemical Industry Co., Ltd., priority 2003, dated 2013)
“Also recorded” adds a separate entry of the source.

Key:
Format in all cases: biochemical
[1] = Optimum pH of scyllo-inositol dehydrogenase; settings: 200 mM phosphate buffer (pH 5.0 to 9.0); 90% or more of the maximum activity
Protocol: The optimum pH can be confirmed by: mixing 5 μl of a reaction solution (200 mM […] of pH 5.0 to 9.0 containing 2% of NADPH, and 1% of scyllo-inosose) and 5 μl of an enzyme solution; allowing the mixture to react at 36° C. for 30 minutes; adding 500 μl of water immediately after the completion of the reaction; determining the absorbance at 340 nm; and determining a decrease in the absorbance at 340 nm with respect to a blank value of a test solution containing water instead of the enzyme solution. The term “optimum pH” means a pH at which the enzyme has 90% or more of the maximum activity. The enzyme of the present invention can be divided depending on, for example, a range of the optimum pH into groups each having: an optimum pH in an acidic region (optimum pH is pH of 5.5 to 6.5); an optimum pH in a neutral region (optimum pH is pH of 6.5 to 7.5 or 6.5 to 8.5); and an optimum pH in an alkaline region (optimum pH is pH of 7.0 to 8.5 or 7.5 to 9.0).
The optimum pH of the enzymes of the present invention was determined by: mixing 5 μl of a reaction solution (200 mM phosphate buffer (pH 5.0 to 9.0), 2% of NADPH, and 1% of scyllo-inosose) with 5 μl of an enzyme solution; and allowing the mixture to react at 36° C. for 30 min. After the reaction, 500 μl of water was immediately added thereto, and the absorbance at 340 nm was measured. From the blank value of a test solution prepared by using water instead of the enzyme solution, the decrease in the absorbance at 340 nm was measured. The enzyme solution was diluted as required.

[2] = Effects of heavy metal on scyllo-inositol dehydrogenase; settings: 2 mM heavy metal in reaction solution, no addition group = 100%
Protocol: Effects by the heavy metals can be confirmed by: mixing 5 μl of a reaction solution (200 mM Tris buffer of pH 8.0 containing 2% of NADPH, 1% of scyllo-inosose, and 2 mM metal salt) and 5 μl of an enzyme solution; allowing the mixture to react at 36° C. for 30 minutes; adding 500 μl of water immediately after the completion of the reaction; determining the absorbance at 340 nm; and determining a decrease in the absorbance at 340 nm with respect to a blank value of a test solution containing water instead of the enzyme solution. The term “activated” means the case where the enzymatic activity of a fraction added with 1 mM of a heavy metal is 105% or more, preferably 120% or more, with respect to the enzymatic activity of a fraction added with no heavy metal as 100%. On the other hand, the term “inhibited” means the case where the enzymatic activity of the fraction added with 1 mM of a heavy metal is 95% or less, preferably 70% or less, with respect to the enzymatic activity of the fraction added with no heavy metal as 100%.
The effects of heavy metal on the enzymes of the present invention were determined by: mixing 5 μl of a reaction solution (200 mM Tris buffer (pH 8.0), 2% of NADPH, 1% of scyllo-inosose, and 2 mM of a heavy metal) with 5 μl of an enzyme solution; and allowing the mixture to react at 36° C. for 30 min. After the reaction, 500 μl of water was immediately added thereto, and the absorbance at 340 nm was measured. From the blank value of a test solution prepared by using water instead of the enzyme solution, the decrease in the absorbance at 340 nm was measured. The enzyme solution was diluted as required. CaCl2, CoCl2, ZnSO4, MgSO4, SnCl2, NiCl2, and MnSO4 were used as metallic salts. The activity of the no addition group was defined as 100%, and the relative activities were compared. […] Most of the enzymes were inhibited in the presence of Zn^2+ ion, in contrast, the enzyme derived from Bacillus subtilis 168 was activated in the presence of Zn^2+ ion.

[3] = Enzyme reaction product of scyllo-inosose reduction measured by HPLC; settings: for share of scyllo-inositol in the product of scyllo-inosose reduction: 10 mg scyllo-inosose, 40 mg NADPH, 10 U enzyme, 36° C., 4 hours, myo-inositol not detected; for Reduction reaction product: SIS: scyllo-inosose, SI: scyllo-inositol
Protocol: Meanwhile, the enzyme reaction product was measured as follows: 10 mg of scyllo-inosose, 40 mg of NADPH, and 10 U of the enzyme were allowed to react in 1.0 ml of 100 mM Tris buffer (pH 8.0) at 36° C. for 4 hours, and a heat treatment was performed at 80° C. for 10 min, followed by cooling. Then, 100 μl of a strong base cation exchange resin, 100 μl of a strong acid anion exchange resin, and 10 mg of activated carbon were added, and the mixture was stirred and centrifuged. Then, the supernatant was diluted 2-fold, and measurement was performed by HPLC (Shodex Asahipak NH2P-50 4E Φ 4.6×250 mm: Shodex) using an RI detector under the condition of a column temperature of 40° C. and a mobile phase flow rate of 1.5 ml (80% acetonitrile). […] Meanwhile, the sequence of the ydgJ gene is shown in SEQ ID NO: 1, and the amino acid sequence corresponding thereto is shown in SEQ ID NO: 2.
Meanwhile, enzyme reaction product was measured as follows: 10 mg of scyllo-inosose, 40 mg of NADPH, and 10 U of the enzyme were allowed to react in 1.0 ml of 100 mM Tris buffer (pH 8.0) at 36° C. for 4 hours, and a heat treatment was performed at 80° C. for 10 min, followed by cooling. Then, 100 μl of a strong base cation exchange resin, 100 μl of a strong acid anion exchange resin, and 10 mg of activated carbon were added, and the mixture was stirred and centrifuged. Then, the supernatant was diluted 2-fold, and measurement was performed by HPLC (Shodex Asahipak NH2P-50 4E Φ 4.6×250 mm: Shodex) using an RI detector under conditions of a column temperature of 40° C. and a mobile phase flow rate of 1.5 ml (80% acetonitrile).

[4] = Km values of scyllo-inositol dehydrogenase for scyllo-inosose (reciprocal plot); settings: NADPH, pH 8.0, 36° C.
Protocol: The determination is carried out such that the Km value is calculated after reciprocal plot according to the general method.
After the reaction, […] of water was immediately added thereto, and the absorbance at 340 nm was measured. From the blank value of a test solution prepared by using water instead of the enzyme solution, the decrease in the absorbance at 340 nm was measured. The enzyme solution was diluted as required. The Km values were calculated by the reciprocal plot.

[5] = Substrate specificity of scyllo-inositol dehydrogenase (relative activity of oxidation, absorbance at 545 nm); settings: relative to reactivity to scyllo-inositol, NADP^+, pH 8.0, 25° C.
Protocol: Examples of an inositol isomer include scyllo-inositol (SI), myo-inositol (MI), D-chiro-inositol (DCI), L-chiro-inositol (LCI), epi-inositol (EI), muco-inositol (MuI), allo-inositol (AI), and neo-inositol (NI).
The inositol isomers include scyllo-inositol (SI), myo-inositol (MI), D-chiro-inositol (DCI), L-chiro-inositol (LCI), epi-inositol (EI), muco-inositol (MuI), allo-inositol (AI), and neo-inositol (NI).
The reaction rate was calculated from the absorbance increments at the respective times.

Molecule | Optimum pH [1] | Heavy metal effects: activation [2] | Heavy metal effects: strong inhibition [2] | share of scyllo-inositol in the product of scyllo-inosose reduction [3] | Reduction reaction product [3] | Km [4] | Substrate specific Relative activity (70% or more) [5] | Substrate specific Relative activity (less than 20%) [5] | Substrate specific Relative activity (20 to 70%) [5] | Heavy metal effects: activation ([2]; listed as enzyme derived from Bacillus subtilis 168)
Xcc3438 gene: recombinant scyllo-inositol dehydrogenase, Xcc3438 gene product of Xanthomonas campestris pv. campestris ATCC33913, SEQ ID NO: 14 (protein, Xanthomonas campestris pv. campestris) MPKPFNLAVVGYGYVGRTFHAPLIASTPGLQLHSVVSSKPQQPQADFREVRVLPDLEAALADPALDAVVIATPNQTHAPMALQALAAGKHVLVDKPFALDAAQARTVVDAAAEAGKIVSVFQNRRWDADFLTVRRLIEDGQLGEVVEFHSHFDRYRPQVRDRWRESDIPGAGLWYDLGPHLLDQALQLFGMPQAISADLQRQRTQARSDDYFNVVLRYPRLRVILHAGSLVADGSLRFAVHGTRGSYLKHGADTQEDQLRAGRRPGTAGWGMDPLPGTLTRVDDEGRVHTHQPDGVPGDYRHCYAAFRDAMAGTAPPPVSAADAVRLMELLELAQRGAALGQVLWLEGNSSD | pH 6.5-7.5 | Co | Sn, Zn | 100% | Only SIS → SI | 9.1 mM | SI, DCI | EI, LCI, MuI,; also recorded: AI, NI |  | 
AB10121 Atu4375 gene: recombinant scyllo-inositol dehydrogenase, Atu4375 gene product of Agrobacterium sp. AB10121 FERM P-17383, SEQ ID NO: 10 (protein, listed as Agrobacterium sp.) MSSAPKKFDSRRIRLGMVGGGQGAFIGAVHRIAARLDDRYELVAGALSSDPARAAASATLLGIAPERSYASFEEMAAAEAGRDDGIEAVAIVTPNHLHFAPSKAFLEAGIHVICDKPVTATLEEAKALAEIVRASDSLFVLTHNYTGYAMLRQMRQMVADGAIGKLRHVQAEYAQDWLTEAVEKTGAKGAEWRTDPSRSGAGGAIGDIGTHAFNAAAFVTGEIPKSLYADLTSFVPGRQLDDSANILLRYESGAKGMLWASQIAVGNENALSLRVYGEKGGLEWHHRVPDELWFTPYGEPKRLITRNGAGAGAAANRVSRVPSGHPEGYLEGFATIYREAADAIIAKREGKAAAGEVIYPGMEDGLAGLAFIDAAVRSSQTSTWINIDI | pH 6.5-8.5 | Co, Mn | Sn, Zn | 100% | Only SIS → SI | 9.8 mM | SI, MI, DCI, EI | AI, NI | LCI, MuI | 
BG14057 gene: recombinant scyllo-inositol dehydrogenase, BG14057 gene product of Bacillus subtilis 168 ATCC23857, SEQ ID NO: 8 (protein, listed as Bacillus subtilis) MITLLKGRRKVDTIKVGILGYGLSGSVFHGPLLDVLDEYQISKIMTSRTEEVKRDFPDAEVVHELEEITNDPAIELVIVTTPSGLHYEHTMACIQAGKHVVMEKPMTATAEEGETLKRAADEKGVLLSVYHNRRWDNDFLTIKKLISEGSLEDINTYQVSYNRYRPEVQARWREKEGTATGTLYDLGSHIIDQTLHLFGMPKAVTANVMAQRENAETVDYFHLTLDYGKLQAILYGGSIVPANGPRYQIHGKDSSFIKYGIDGQEDALRAGRKPEDDSWGADVPEFYGKLTTIRGSDKKTETIPSVNGSYLTYYRKIAESIREGAALPVTAEEGINVIRIIEAAMESSKEKRTIMLEH | pH 7.0-8.5 | Co, Mn, Zn | Sn | 100% | Only SIS → SI | 3.5 mM | SI, MI | LCI, MuI | DCI, EI, AI, NI | Zn^2+ ion
